From publication PMC3499415, “The Human Cytomegalovirus DNA Polymerase Processivity Factor UL44 Is Modified by SUMO in a DNA-Dependent Manner” (PLoS ONE, 2012) come the findings set out here.

Sequences and labels used below:
T1: HCMV UL44 (DNA polymerase processivity factor), full-length, yeast two-hybrid fusion (human cytomegalovirus (HCMV)), P16790
T1 chain: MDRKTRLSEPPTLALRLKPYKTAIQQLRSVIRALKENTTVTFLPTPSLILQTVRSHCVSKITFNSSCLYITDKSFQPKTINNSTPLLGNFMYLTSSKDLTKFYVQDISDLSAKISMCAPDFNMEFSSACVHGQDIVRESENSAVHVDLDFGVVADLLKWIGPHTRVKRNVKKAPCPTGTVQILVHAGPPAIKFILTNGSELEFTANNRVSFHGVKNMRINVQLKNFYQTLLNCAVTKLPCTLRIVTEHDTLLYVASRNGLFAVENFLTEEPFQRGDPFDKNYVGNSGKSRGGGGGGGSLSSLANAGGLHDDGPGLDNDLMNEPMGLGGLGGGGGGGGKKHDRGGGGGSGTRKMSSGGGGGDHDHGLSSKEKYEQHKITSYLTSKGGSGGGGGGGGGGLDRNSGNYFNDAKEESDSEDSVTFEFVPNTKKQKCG

B1: HCMV UL44 (DNA polymerase processivity factor), full-length, yeast two-hybrid fusion, P16790 1-433 (natural protein)
chain: T1 chain
B2: HCMV UL44 (DNA polymerase processivity factor), full-length, yeast two-hybrid fusion (natural protein)
chain: T1 chain
notes: also called LexA-UL44; GAD-UL44; source: yeast two-hybrid fusion (S. cerevisiae L40)
B3: HCMV UL54 (DNA polymerase catalytic subunit), GAD fusion (enzyme)
chain: MFFNPYLSGGVTGGAVAGGRRQRSQPGSAQGSGKRPPQKQFLQIVPRGVMFDGQTGLIKHKTGRLPLMFYREIKHLLSHDMVWPCPWRETLVGRVVGPIRFHTYDQTDAVLFFDSPENVSPRYRQHLVPSGNVLRFFGATEHGYSICVNVFGQRSYFYCEYSDTDRLREVIASVGELVPEPRTPYAVSVTPATKTSIYGYGTRPVPDLQCVSISNWTMARKIGEYLLEQGFPVYEVRVDPLTRLVIDRRITTFGWCSVNRYDWRQQGRASTCDIEVDCDVSDLVAVPDDSSWPRYRCLSFDIECMSGEGGFPCAEKSDDIVIQISCVCYETGGNTAVDQGIPNGNDGRGCTSEGVIFGHSGLHLFTIGTCGQVGPDVDVYEFPSEYELLLGFMLFFQRYAPAFVTGYNINSFDLKYILTRLEYLYKVDSQRFCKLPTAQGGRFFLHSPAVGFKRQYAAAFPSASHNNPASTAATKVYIAGSVVIDMYPVCMAKTNSPNYKLNTMAELYLRQRKDDLSYKDIPRCFVANAEGRAQVGRYCLQDAVLVRDLFNTINFHYEAGAIARLAKIPLRRVIFDGQQIRIYTSLLDECACRDFILPNHYSKGTTVPETNSVAVSPNAAIISTAAVPGDAGSVAAMFQMSPPLQSAPSSQDGVSPGSGSNSSSSVGVFSVGSGSSGGVGVSNDNHGAGGTAAVSYQGATVFEPEVGYYNDPVAVFDFASLYPSIIMAHNLCYSTLLVPGGEYPVDPADVYSVTLENGVTHRFVRASVRVSVLSELLNKWVSQRRAVRECMRECQDPVRRMLLDKEQMALKVTCNAFYGFTGVVNGMMPCLPIAASITRIGRDMLERTARFIKDNFSEPCFLHNFFNQEDYVVGTREGDSEESSALPEGLETSSGGSNERRVEARVIYGDTDSVFVRFRGLTPQALVARGPSLAHYVTACLFVEPVKLEFEKVFVSLMMICKKRYIGKVEGASGLSMKGVDLVRKTACEFVKGVTRDVLSLLFEDREVSEAAVRLSRLSLDEVKKYGVPRGFWRILRRLVQARDDLYLHRVRVEDLVLSSVLSKDISLYRQSNLPHIAVIKRLAARSEELPSVGDRVFYVLTAPGVRTAPQGSSDNGDSVTAGVVSRSDAIDGTDDDADGGGVEESNRRGGEPAKKRARKPPSAVCNYEVAEDPSYVREHGVPIHADKYFEQVLKAVTNVLSPVFPGGETARKDKFLHMVLPRRLHLEPAFLPYSVKAHECC
notes: also called GAD-UL54; source: yeast two-hybrid fusion (S. cerevisiae L40)

Holding throughout (assay): two-hybrid
Test [1] deals with T1, HCMV UL44 (DNA polymerase processivity …). The conditions noted are these: remark: other sources report otherwise.
Test [2] addresses T2, human Ubc9 (SUMO-conjugating enzyme E2), yeast two-hybrid fusion (human, UniProt P63279 1-158).
T2 construct: also called GAD-Ubc9; LexA-Ubc9
As to conditions: partners not purified.

Test [3] concerns the target B2. The conditions noted are these: partners not purified.

T2 sequence (P63279 whole entry, the tested form may be a part): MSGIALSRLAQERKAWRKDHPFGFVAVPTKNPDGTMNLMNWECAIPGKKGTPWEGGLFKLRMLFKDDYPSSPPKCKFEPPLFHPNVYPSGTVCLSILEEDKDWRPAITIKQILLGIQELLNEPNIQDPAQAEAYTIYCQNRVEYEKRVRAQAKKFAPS

In test [1], B1 showed a β-gal expression of 7640 Units.
In turn, B2 returned a β-gal expression in test [2] of 6920 Units.
The molecule B3 gave a β-gal expression in test [3] of 8240 Units.
